Results published in patent EP4039268A1 (IMBA-Institut für Molekulare Biotechnologie GmbH, dated 2022).

Assays:
[1] = target: T1, human recombinant soluble ACE2 (human, UniProt Q9BYF1 18-740); experiment: ELISA
T1 construct: also called hrsACE2

[2] = target: T2, full-length trimeric SARS-CoV-2 Spike protein (Spike-H6) (SARS-CoV-2, N-glycosylated (22 N-glycosylation sites)); experiment: ELISA screen
T2 construct: also called trimeric Spike; full-length Spike-H6

[3] = target: T3, monomeric SARS-CoV-2 receptor binding domain (RBD-H6) (SARS-CoV-2, UniProt P0DTC2 319-541); experiment: ELISA screen
T3 construct: Made in HEK293-6E cells; also called RBD Spike; monomeric RBD

[4] = target: T1, human recombinant soluble ACE2; experiment: ELISA screen

Binder	binding result [1]	Mean normalized OD [2]	Mean normalized OD [3]	Mean normalized OD [4]
Grifin CRD-mouse IgG2a-Fc fusion protein (Fc fusion) FEAFCAGGLAPGWSLTVQGHADAGEEKFEINFLTDAGDIAFHVKPRFSSATVVGNAFQGGRWGQEEVSSIFPLTLGEPFEMEVSADAEHFHIYAQEQKVLQFPHRHRPLATITRVRVLSEHRLAQVELAGGGSGGGSGGGS	no binding (tested: 10 µg/ml)	0.004 OD	0 OD	0.035 OD
Clec3b CRD-mouse IgG2a-Fc fusion protein (Fc fusion) VNLKCLLAFTQPKTFHEASEDCISQGGTLGTPQSELENEALFEYARHSVGNDANIWLGLNDMAAEGAWVDMTGGLLAYKNWETEITTQPDGGKAENCAALSGAANGKWFDKRCRDQLPYICQGGGSGGGSGGGS	no binding (tested: 10 µg/ml)	0.001 OD	0 OD	0.001 OD
Atrn CRD-mouse IgG2a-Fc fusion protein (Fc fusion) VGNSCLKITTAKENYDNAKLSCRNHNAFLASLTSQKKVEFVLKQLRLMQSSQSMSKLTLTPWVGLRKINVSYWCWEDMSPFTNSLLQWMPSEPSDAGFCGILSEPSTRGLKAATCINPLNGSVCEGGGSGGGSGGGS	no binding (tested: 10 µg/ml)	0.002 OD	0.001 OD	0.002 OD
Klrb1 CRD-mouse IgG2a-Fc fusion protein (Fc fusion) HCDKCLFTSQTSRPWADGLVDCNLKGATLLLIQDEEELRLLQNFSKGKGQQFYIGLKYEEVDKVWKWMNGSILNTNLLQITGKDEENSCALISQTEVFSDSCSSDNHWICQGGGSGGGSGGGS	no binding (tested: 10 µg/ml)	0.002 OD	0.005 OD	0.012 OD
Clec3a CRD-mouse IgG2a-Fc fusion protein (Fc fusion) VHKKCYLASEGLKHYHEANEDCISKGGTLVVPRNSDEINALRDYGKRSLPGVNDFWLGINDMVTEGKFLDVHGFAVSFLNWDRAQPSGGKRENCVLFSQSAQGKWSDEACRSSKRYICEGGGSGGGSGGGS	no binding (tested: 10 µg/ml)	0.098 OD	0.039 OD	0.045 OD
Frem1 CRD-mouse IgG2a-Fc fusion protein (Fc fusion) HSGYCHILVTRQKGTWTTATRACREQHQGDLVTVLSRRHMQWLWAMSGRKPFWIGLKNQPRTGHWEWIGGEPVAFTNWRRGAPLHPKPGKNCALVQKRGQWQTKNCSKGKAHNFVGGGSGGGSGGGS	no binding (tested: 10 µg/ml)	0.03 OD	0.013 OD	0.028 OD
Clec2l CRD-mouse IgG2a-Fc fusion protein (Fc fusion) YGRKCYYFSEEPRDWNTGRQYCHTHEAALAVIQSQKELEFMFKFTRREPWIGLRRVGDDFHWVNGDPFDPDTFTISGMGECVFVEPTRLVSTECLTTRPWVCSGGGSGGGSGGGS	no binding (tested: 10 µg/ml)	-0.001 OD	0 OD	0 OD
Colec10 CRD-mouse IgG2a-Fc fusion protein (Fc fusion) TEEKFYYIVQEEKNYRESLTHCRIRGGMLAMPKDEVVNTLIADYVAKSGFFRVFIGVNDLEREGQYVFTDNTPLQNYSNWKEEEPSDPSGHEDCVEMLSSGRWNDTECHLTMYFVCEGGGSGGGSGGGS	no binding (tested: 10 µg/ml)	0.036 OD	0.008 OD	0.185 OD
Dgcr2 CRD-mouse IgG2a-Fc fusion protein (Fc fusion) CPSGWHHYEGTASCYRVYLSGENYWDAAQTCQRVNGSLATFSTDQELRFVLAQEWDQPERSFGWKDQRKLWVGYQYVITGRNHSLEGRWEVAFKGSPEVFLPPDPIFASAMSENDNVFCAQLQCFHFGGGSGGGSGGGS	no binding (tested: 10 µg/ml)	0.005 OD	0.003 OD	0.012 OD
Acan CRD-mouse IgG2a-Fc fusion protein (Fc fusion) not shown	no binding (tested: 10 µg/ml)	0.023 OD	0.035 OD	0.081 OD
Lgals4_1 CRD-mouse IgG2a-Fc fusion protein (Fc fusion) YKRPIPGGLSVGMSVYIQGMAKENMRRFHVNFAVGQDDGADVAFHFNPRFDGWDKVVFNTMQSGQWGKEEKKKSMPFQKGKHFELVFMVMPEHYKVVVNGNSFYEYGHRLPVQMVTHLQVDGDLELQSINFLGGGSGGGSGGGS	no binding (tested: 10 µg/ml)	0.152 OD	–	0.2 OD
Clec4e CRD-mouse IgG2a-Fc fusion protein (Fc fusion) YQSSCYFFSTTTLTWSSSLKNCSDMGAHLVVIDTQEEQEFLFRTKPKRKEFYIGLTDQVVEGQWQWVDDTPFTESLSFWDAGEPNNIVLVEDCATIRDSSNSRKNWNDIPCFYSMPWICEGGGSGGGSGGGS	no binding (tested: 10 µg/ml)	0.037 OD	0.022 OD	0.222 OD
Colec11 CRD-mouse IgG2a-Fc fusion protein (Fc fusion) TESKIYLLVKEEKRYADAQLSCQARGGTLSMPKDEAANGLMASYLAQAGLARVFIGINDLEKEGAFVYSDRSPMQTFNKWRSGEPNNAYDEEDCVEMVASGGWNDVACHITMYFMCEGGGSGGGSGGGS	no binding (tested: 10 µg/ml)	0.043 OD	0.013 OD	0.153 OD
Clec9a CRD-mouse IgG2a-Fc fusion protein (Fc fusion) NGKSCYYVFERWEMWNISKKSCLKEGASLFQIDSKEEMEFISSIGKLKGGNKYWVGVFQDGISGSWFWEDGSSPLSDLLPAERQRSAGQICGYLKDSTLISDKCDSWKYFICEGGGSGGGSGGGS	no binding (tested: 10 µg/ml)	0.029 OD	0.062 OD	0.222 OD
Klrb1a CRD-mouse IgG2a-Fc fusion protein (Fc fusion) ECPQDWLSHRDKCFHVSHVSNTWEEGLVDCDGKGATLMLIQDQEELRFLLDSIKEKYNSFWIGLRYTLPDMNWKWINGSTLNSDVLKITDDTENDSCAAISGDKVTFESCNSDNRWICQKGGGSGGGSGGGS	no binding (tested: 10 µg/ml)	0 OD	0.002 OD	0 OD
Asgr1 CRD-mouse IgG2a-Fc fusion protein (Fc fusion) YEGSCYWFSSSVRPWTEADKYCQLENAHLVVVTSRDEQNFLQRHMGPLNTWIGLTDQNGPWKWVDGTDYETGFQNWRPEQPDNWYGHGLGGGEDCAHFTTDGRWNDDVCRRPYRWVCEGGGSGGGSGGGS	no binding (tested: 10 µg/ml)	0.121 OD	–	0.004 OD
Clec2d CRD-mouse IgG2a-Fc fusion protein (Fc fusion) VENKCFYFSEYPSNWTFAQAFCMAQEAQLARFDNQDELNFLMRYKANFDSWIGLHRESSEHPWKWTDNTEYNNTIPIRGEERFAYLNNNGISSTRIYSLRMWICSKLNSYSLHCQTGGGSGGGSGGGS	–	-0.106 OD	0.024 OD	-0.506 OD
Olr1 CRD-mouse IgG2a-Fc fusion protein (Fc fusion) HKENCYLFHGPFSWEKNRQTCQSLGGQLLQINGADDLTFILQAISHTTSPFWIGLHRKKPGQPWLWENGTPLNFQFFKTRGVSLQLYSSGNCAYLQDGAVFAENCILIAFSICQGGGSGGGSGGGS	no binding (tested: 10 µg/ml)	0.083 OD	–	0.116 OD
